pKd: −log10 of the molar value.
Assays:
[1] = biological target: mKRb, recombinant fragment spanning the ketoreductase domain from module 7 of MLSB (Mycobacterium ulcerans); assay: ITC; ACP species (1 mM) in the syringe injected into mKRb (50 uM) with 5 mM NADPH in the cell; 25 mM HEPES, 50 mM NaCl, 0.01% NaN3, pH 7.5, 30 °C; single binding site model; mean of three technical replicates
[2] = biological target: mKRb, recombinant fragment spanning the ketoreductase domain from module 7 of MLSB (Mycobacterium ulcerans); assay: ITC; ACP species (1 mM) in the syringe injected into mKRb (50 uM) with 5 mM NADP+ in the cell; 25 mM HEPES, 50 mM NaCl, 0.01% NaN3, pH 7.5, 30 °C; single binding site model; mean of three technical replicates

| Substance | pKd [1] | pKd [2] | stoichiometry N [1] |
| --- | --- | --- | --- |
| holo mACPb, short B1-type ACP domain from module 7 of MLSB with Ppant (domain or fragment) | 6.12 | 6.21 | – |
| apo mH0ACPb, N-terminally extended B1-type ACP domain from module 7 of MLSB (domain or fragment) | 5.84 | 5.86 | – |
| apo mH0ACPa, N-terminally extended A1-type ACP domain from module 5 of MLSA1 (from UniProt Q6MZA4 11087-11185) (domain or fragment) | 5.66 | – | – |
| holo mH0ACPa, N-terminally extended A1-type ACP domain from module 5 of MLSA1 with Ppant (from UniProt Q6MZA4 11087-11185) (domain or fragment) | 6.20 | – | – |
| apo mACPb, short B1-type ACP domain from module 7 of MLSB (domain or fragment) | 5.66 | 5.59 | 1 |
| holo mH0ACPb, N-terminally extended B1-type ACP domain from module 7 of MLSB with Ppant (domain or fragment) | 6.16 | 6.15 | – |

— article PMC6382882
